According to article PMC7373187:
Values belong to the substance of their own block, whether it stands above or below them.

How the values were obtained:
[1] = biological target: His6-GapR_(1–89), full-length wild-type GapR of Caulobacter crescentus (C. crescentus); assay: cross-linking; 400 mM EDC plus 100 mM NHS, 2 h, room temperature; proteins at 50 μM (monomer); 1 M NaCl and 1 mM EDTA (no DNA bound); SDS-PAGE, silver stained
[2] = biological target: His6-GapR_(1–89), full-length wild-type GapR of Caulobacter crescentus (C. crescentus); assay: SEC; Superdex 75 10/300 GL, 1 M NaCl and 1 mM EDTA, proteins separated from copurified DNA; His6-GapR1-89 at 50 μM, His6-GapR1-69 at 125 μM, His6-GapR1-76 at 100 μM (monomer)
[3] = biological target: His6-GapR_(1–89), full-length wild-type GapR of Caulobacter crescentus (C. crescentus); assay: cross-linking; 400 mM EDC plus 100 mM NHS, 2 h, room temperature; proteins at 50 μM (monomer); 150 mM NaCl, 10% glycerol, 20 mM HEPES (for tagged and untagged GapR1-89 also 50 mM sodium phosphate); SDS-PAGE, silver stained
[4] = biological target: untagged GapR_(1–89) (C. crescentus); assay: as above
[5] = biological target: His6-GapR_(1–76), truncated GapR lacking the hydrophobic patch of helix H3 (C. crescentus); assay: cross-linking; 400 mM EDC plus 100 mM NHS, 2 h, room temperature; proteins at 50 μM (monomer); 1 M NaCl and 1 mM EDTA (no DNA bound); SDS-PAGE, silver stained
[6] = biological target: His6-GapR_(1–76), truncated GapR lacking the hydrophobic patch of helix H3 (C. crescentus); assay: SEC; Superdex 75 10/300 GL, 1 M NaCl and 1 mM EDTA, proteins separated from copurified DNA; His6-GapR1-89 at 50 μM, His6-GapR1-69 at 125 μM, His6-GapR1-76 at 100 μM (monomer)
[7] = biological target: His6-GapR_(1–69), truncated GapR lacking the entire helix H3 (C. crescentus); assay: cross-linking; 400 mM EDC plus 100 mM NHS, 2 h, room temperature; proteins at 50 μM (monomer); 1 M NaCl and 1 mM EDTA (no DNA bound); SDS-PAGE, silver stained
[8] = biological target: His6-GapR_(1–69), truncated GapR lacking the entire helix H3 (C. crescentus); assay: SEC; Superdex 75 10/300 GL, 1 M NaCl and 1 mM EDTA, proteins separated from copurified DNA; His6-GapR1-89 at 50 μM, His6-GapR1-69 at 125 μM, His6-GapR1-76 at 100 μM (monomer)

stoichiometry N [1]: 4 | stoichiometry N [2]: 4 | stoichiometry N [3]: 4
Substance: His6-GapR_(1–89), full-length wild-type GapR of Caulobacter crescentus (natural protein)

stoichiometry N [4]: 4
Substance: untagged GapR_(1–89) (natural protein)

stoichiometry N [5]: 2 | stoichiometry N [6]: 2
Substance: His6-GapR_(1–76), truncated GapR lacking the hydrophobic patch of helix H3 (domain or fragment)

stoichiometry N [7]: 2 | stoichiometry N [8]: 2
Substance: His6-GapR_(1–69), truncated GapR lacking the entire helix H3 (domain or fragment)
